Assay results published in the supplement of paper PMC11780869.

Test system: Bacillus subtilis
Test: cleaved RNA product abundance (RNA/gDNA barcode ratio) relative to median wild-type variant (ratio to wild type); higher = more accumulation of the downstream cleavage product
Conditions: experiment (reporter, strain, medium): exp 8a: truncated aprE reporter, strain BJT201 with 2% xylose (RNase J1 expressed); cleavage site: glnRA (positions -5 to +31 mutated)
In short: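 Truncated aprE or tetM reporter mRNAs with barcoded RNase Y cleavage-site windows, mutagenized from oligos at a 9% error rate, sat in the B. subtilis chromosome. Cells grew in LB at 37°C from OD600 0.0003 to 0.3. Gel-selected cleaved RNA was reverse transcribed and its barcodes sequenced with those from genomic DNA, collapsing by UMI. Cleaved product abundance equals the RNA:gDNA barcode ratio per construct over the median construct with the unmutated site.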

Sequence	cleaved RNA product abundance
CGACATGTCCCGCTTCTTTCATTAATACGTTAGCAACTTTTTTGCTATATACATTTACCTTTTAAGAGGAGGAAT	0.721
CGACATGTCCCGCTTCTTTCATTAATACGTTAGCAAGTGTTTTGCTATATACATTTACCTTTTAAGAGGAGGAAT	0.882
CGACATGTCCCGCTTCTTTCATTAATACGTTAGCAATAGTTTTGCTATATACATTTACCTTTTAAGAGGAGGAAT	0.874
CGACATGTCCCGCTTCTTTCATTAATACGTTAGCAATTGTTTTGCTATATACATTTACCTTTTAAGAGGAGGAAT	0.823
CGACATGTCCCGCTTCTTTCATTAATACGTTAGCATCTGTTTTGCTATATACATTTACCTTTTAAGAGGAGGAAT	0.87
CGACATGTCCCGCTTCTTTCATTAATACGTTAGCTACTGTTTTGCTATATACATTTACCTTTTAAGAGGAGGAAT	0.562
CGACATGTCCCGCTTCTTTCATTAATACGTTAGTAACTGTTTTGCTAAATACATTTACCTTTTAAGAGGAGGAAT	0.285
CGACATGTCCCGCTTCTTTCATTAATACGTTAGTAACTGTTTTGCTATATACATTTACCTTTTAAGAGGAGGAAT	0.334
CGACATGTCCCGCTTCTTTCATTAATACGTTATCAACTGTTTTGCTATATACATTTACCTTTTAAGAGGAGGAAT	0.281
CGACATGTCCCGCTTCTTTCATTAATACGTTCGCAACTGTTTTGCTATATACATTTACCTTTTAAGAGGAGGAAT	0.216
CGACATGTCCCGCTTCTTTCATTAATACGTTTGCAACTGTTTTGCTATATACATTTACCTTTTAAGAGGAGGAAT	0.769
CGACATGTCCCGCTTCTTTCATTAATACTTTAGCAACTGTTTTGCTATATACATTTACCTTTTAAGAGGAGGAAT	0.611
CGACATGTCCCGCTTCTTTCATTAATAGGTTAGCAACTGTTTTGCTATATACATTTACCTTTTAAGAGGAGGAAT	0.766
CGACATGTCCCGCTTCTTTCATTAATATGTTAGCAACTGTTTTGCTATATACATTTACCTTTTAAGAGGAGGAAT	0.819
CGACATGTCCCGCTTCTTTCATTAATCAATTAGCAACTGTTTTGCTATATACATTTACCTTTTAAGAGGAGGAAT	0.946
CGACATGTCCCGCTTCTTTCATTAATCAGGTAGCAACTGTTTTGCTATATACATTTACCTTTTAAGAGGAGGAAT	0.783
CGACATGTCCCGCTTCTTTCATTAATCAGTAAGCAACTGTTTTGCTATATACATTTACCTTTTAAGAGGAGGAAT	0.489
CGACATGTCCCGCTTCTTTCATTAATCAGTCAGCAACTGTTTTGCTATATACATTTACCTTTTAAGAGGAGGAAT	0.367
CGACATGTCCCGCTTCTTTCATTAATCAGTGAGCAACTGTTTTGCTATATACATTTACCTTTTAAGAGGAGGAAT	0.37
CGACATGTCCCGCTTCTTTCATTAATCAGTTAACAACTGTTTTGCTATATACATTTACCTTTTAAGAGGAGGAAT	0.249
CGACATGTCCCGCTTCTTTCATTAATCAGTTAACTTTTTTGCTATATATATTTACCTTTTAAGAGGAGGAATTTT	0.238
CGACATGTCCCGCTTCTTTCATTAATCAGTTACCAACTGTTTTGCTATATACATTTACCTTTTAAGAGGAGGAAT	0.267
CGACATGTCCCGCTTCTTTCATTAATCAGTTAGAAACTGTTTTGCTATATACATTTACCTTTTAAGAGGAGGAAT	0.328

Sequence	cleaved RNA product abundance
CGACATGTCCCGCTTCTTTCATTAATCAGTTAGCAACAGTTTTGCTATATACATTTACCTTTTAAGAGGAGGAAT	0.832
CGACATGTCCCGCTTCTTTCATTAATCAGTTAGCAACTATTTTGCTATATACATTTACCTTTTAAGAGGAGGAAT	1.97
CGACATGTCCCGCTTCTTTCATTAATCAGTTAGCAACTGTATTGCTATATACATTTACCTTTTAAGAGGAGGAAT	0.59
CGACATGTCCCGCTTCTTTCATTAATCAGTTAGCAACTGTGTTGCTATATACATTTACCTTTTAAGAGGAGGAAT	0.251
CGACATGTCCCGCTTCTTTCATTAATCAGTTAGCAACTGTTATGCTATATACATTTACCTTTTAAGAGGAGGAAT	0.578
CGACATGTCCCGCTTCTTTCATTAATCAGTTAGCAACTGTTGTGCTATATACATTTACCTTTTAAGAGGAGGAAT	0.354
CGACATGTCCCGCTTCTTTCATTAATCAGTTAGCAACTGTTTAGCTATATACATTTACCTTTTAAGAGGAGGAAT	0.775
CGACATGTCCCGCTTCTTTCATTAATCAGTTAGCAACTGTTTTACTATATACATTTACCTTTTAAGAGGAGGAAT	0.611
CGACATGTCCCGCTTCTTTCATTAATCAGTTAGCAACTGTTTTCCTATATACATTTACCTTTTAAGAGGAGGAAT	0.433
CGACATGTCCCGCTTCTTTCATTAATCAGTTAGCAACTGTTTTGATATATACATTTACCTTTTAAGAGGAGGAAT	0.648
CGACATGTCCCGCTTCTTTCATTAATCAGTTAGCAACTGTTTTGCAATATACATTTACCTTTTAAGAGGAGGAAT	0.332
CGACATGTCCCGCTTCTTTCATTAATCAGTTAGCAACTGTTTTGCTATACACATTTACCTTTTAAGAGGAGGAAT	0.225
CGACATGTCCCGCTTCTTTCATTAATCAGTTAGCAACTGTTTTGCTATATAAATTTACCTTTTAAGAGGAGGAAT	0.682
CGACATGTCCCGCTTCTTTCATTAATCAGTTAGCAACTGTTTTGCTATATACATATACCTTTTAAGAGGAGGAAT	1.04
CGACATGTCCCGCTTCTTTCATTAATCAGTTAGCAACTGTTTTGCTATATACATTAACCTTTTAAGAGGAGGAAT	0.984
CGACATGTCCCGCTTCTTTCATTAATCAGTTAGCAACTGTTTTGCTATATACATTTAACTTTTAAGAGGAGGAAT	0.983
CGACATGTCCCGCTTCTTTCATTAATCAGTTAGCAACTGTTTTGCTATATACATTTACATTTTAAGAGGAGGAAT	0.595
CGACATGTCCCGCTTCTTTCATTAATCAGTTAGCAACTGTTTTGCTATATACATTTACCATTAAGAGGAGGAATT	1.4
CGACATGTCCCGCTTCTTTCATTAATCAGTTAGCAACTGTTTTGCTATATACATTTACCATTTAAGAGGAGGAAT	0.636
CGACATGTCCCGCTTCTTTCATTAATCAGTTAGCAACTGTTTTGCTATATACATTTACCCTTTAAGAGGAGGAAT	1.22
CGACATGTCCCGCTTCTTTCATTAATCAGTTAGCAACTGTTTTGCTATATACATTTACCGTTTAAGAGGAGGAAT	0.649
CGACATGTCCCGCTTCTTTCATTAATCAGTTAGCAACTGTTTTGCTATATACATTTACCTTTTAAGAGGAGGAAT	0.763
CGACATGTCCCGCTTCTTTCATTAATCAGTTAGCAACTGTTTTGCTATATACATTTACTTTTTAAGAGGAGGAAT	0.903
